Measured values: patent US20190359687A1 (Bayer, published 2019)

T1: human glycophorin A on human red blood cells (human, UniProt P02724 20-150)
T1 construct: whole, on cells; also called human GPA; huGPA
T1 sequence (looked up): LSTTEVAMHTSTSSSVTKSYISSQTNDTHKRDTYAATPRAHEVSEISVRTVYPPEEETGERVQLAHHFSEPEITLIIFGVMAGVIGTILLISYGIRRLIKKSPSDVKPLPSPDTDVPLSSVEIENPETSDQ

T2: glycophorin A peptide GP5 (human, biotin at the N-terminus)
T2 construct: Residues 42 to 61 of the human glycophorin A extracellular domain
T2 peptide: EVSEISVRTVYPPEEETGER

B1: TPP-8741 FVIII-scFv fusion protein (other)
chain: ATRRYYLGAVELSWDYMQSDLGELPVDARFPPRVPKSFPFNTSVVYKKTLFVEFTDHLFNIAKPRPPWMGLLGPTIQAEVYDTVVITLKNMASHPVSLHAVGVSYWKASEGAEYDDQTSQREKEDDKVFPGGSHTYVWQVLKENGPMASDPLCLTYSYLSHVDLVKDLNSGLIGALLVCREGSLAKEKTQTLHKFILLFAVFDEGKSWHSETKNSLMQDRDAASARAWPKMHTVNGYVNRSLPGLIGCHRKSVYWHVIGMGTTPEVHSIFLEGHTFLVRNHRQASLEISPITFLTAQTLLMDLGQFLLFCHISSHQHDGMEAYVKVDSCPEEPQLRMKNNEEAEDYDDDLTDSEMDVVRFDDDNSPSFIQIRSVAKKHPKTWVHYIAAEEEDWDYAPLVLAPDDRSYKSQYLNNGPQRIGRKYKKVRFMAYTDETFKTREAIQHESGILGPLLYGEVGDTLLIIFKNQASRPYNIYPHGITDVRPLYSRRLPKGVKHLKDFPILPGEIFKYKWTVTVEDGPTKSDPRCLTRYYSSFVNMERDLASGLIGPLLICYKESVDQRGNQIMSDKRNVILFSVFDENRSWYLTENIQRFLPNPAGVQLEDPEFQASNIMHSINGYVFDSLQLSVCLHEVAYWYILSIGAQTDFLSVFFSGYTFKHKMVYEDTLTLFPFSGETVFMSMENPGLWILGCHNSDFRNRGMTALLKVSSCDKNTGDYYEDSYEDISAYLLSKNNAIEPRSFSQNGGGGSTGGTGGSSGGGTGSGGGGTGGSGGTDIQLTQSPSFLSASVGDRVTITCRASSSVRYIYWFQQKPGKAPKLLIYATSFRQSGVPSRFSGSGSGTEYTLTISSLQPEDFATYYCHQRNSFPYTFGQGTKLEIKGGGGSGGGGSGGGGSGGGGSEVQLVQSGAEVKKPGASVKVSCKASGYTFTTYAIHWVRQAPGQGLEWMGYINPSSGYTRYNPKFKGRVTMTRDKSTSTAYMELRSLRSDDTAVYYCWTGTRDYWGQGTTVTVSSGGGGSQNPPVLKRHQREITRTTLQSDQEEIDYDDTISVEMKKEDFDIYDEDENQSPRSFQKKTRHYFIAAVERLWDYGMSSSPHVLRNRAQSGSVPQFKKVVFQEFTDGSFTQPLYRGELNEHLGLLGPYIRAEVEDNIMVTFRNQASRPYSFYSSLISYEEDQRQGAEPRKNFVKPNETKTYFWKVQHHMAPTKDEFDCKAWAYFSDVDLEKDVHSGLIGPLLVCHTNTLNPAHGRQVTVQEFALFFTIFDETKSWYFTENMERNCRAPCNIQMEDPTFKENYRFHAINGYIMDTLPGLVMAQDQRIRWYLLSMGSNENIHSIHFSGHVFTVRKKEEYKMALYNLYPGVFETVEMLPSKAGIWRVECLIGEHLHAGMSTLFLVYSNKCQTPLGMASGHIRDFQITASGQYGQWAPKLARLHYSGSINAWSTKEPFSWIKVDLLAPMIIHGIKTQGARQKFSSLYISQFIIMYSLDGKKWQTYRGNSTGTLMVFFGNVDSSGIKHNIFNPPIIARYIRLHPTHYSIRSTLRMELMGCDLNSCSMPLGMESKAISDAQITASSYFTNMFATWSPSKARLHLQGRSNAWRPQVNNPKEWLQVDFQKTMKVTGVTTQGVKSLLTSMYVKEFLISSSQDGHQWTLFFQNGKVKVFQGNQDSFTPVVNSLDPPLLTRYLRIHPQSWVHQIALRMEVLGCEAQDLY
notes: The entry is the mature protein; mostly a 2 chain molecule; also called BDD-Bdom scFv; PPB 6559
B2: TPP-9901 FVIII-scFv fusion protein (other)
chain: ATRRYYLGAVELSWDYMQSDLGELPVDARFPPRVPKSFPFNTSVVYKKTLFVEFTDHLFNIAKPRPPWMGLLGPTIQAEVYDTVVITLKNMASHPVSLHAVGVSYWKASEGAEYDDQTSQREKEDDKVFPGGSHTYVWQVLKENGPMASDPLCLTYSYLSHVDLVKDLNSGLIGALLVCREGSLAKEKTQTLHKFILLFAVFDEGKSWHSETKNSLMQDRDAASARAWPKMHTVNGYVNRSLPGLIGCHRKSVYWHVIGMGTTPEVHSIFLEGHTFLVRNHRQASLEISPITFLTAQTLLMDLGQFLLFCHISSHQHDGMEAYVKVDSCPEEPQLRMKNNEEAEDYDDDLTDSEMDVVRFDDDNSPSFIQIRSVAKKHPKTWVHYIAAEEEDWDYAPLVLAPDDRSYKSQYLNNGPQRIGRKYKKVRFMAYTDETFKTREAIQHESGILGPLLYGEVGDTLLIIFKNQASRPYNIYPHGITDVRPLYSRRLPKGVKHLKDFPILPGEIFKYKWTVTVEDGPTKSDPRCLTRYYSSFVNMERDLASGLIGPLLICYKESVDQRGNQIMSDKRNVILFSVFDENRSWYLTENIQRFLPNPAGVQLEDPEFQASNIMHSINGYVFDSLQLSVCLHEVAYWYILSIGAQTDFLSVFFSGYTFKHKMVYEDTLTLFPFSGETVFMSMENPGLWILGCHNSDFRNRGMTALLKVSSCDKNTGDYYEDSYEDISAYLLSKNNAIEPRSFSQNGGGGSTGGTGGSSGGGTGSGGGGTGGSGGTDIQLTQSPSFLSASVGDRVTITCRASSSVRYIYWFQQKPGKAPKLLIYATSFRQSGVPSRFSGSGSGTEYTLTISSLQPEDFATYYCHQRNSFPYTFGQGTKLEIKGGGGSGGGGSGGGGSGGGGSEVQLVQSGAEVKKPGASVKVSCKASGYTFTTYAIHWVRQAPGQGLEWMGYINPSSGYTRYNPKFKGRVTMTRDKSTSTAYMELRSLRSDDTAVYYCWTGTRDYWGQGTTVTVSSGGGGDENQSPRSFQKKTRHYFIAAVERLWDYGMSSSPHVLRNRAQSGSVPQFKKVVFQEFTDGSFTQPLYRGELNEHLGLLGPYIRAEVEDNIMVTFRNQASRPYSFYSSLISYEEDQRQGAEPRKNFVKPNETKTYFWKVQHHMAPTKDEFDCKAWAYFSDVDLEKDVHSGLIGPLLVCHTNTLNPAHGRQVTVQEFALFFTIFDETKSWYFTENMERNCRAPCNIQMEDPTFKENYRFHAINGYIMDTLPGLVMAQDQRIRWYLLSMGSNENIHSIHFSGHVFTVRKKEEYKMALYNLYPGVFETVEMLPSKAGIWRVECLIGEHLHAGMSTLFLVYSNKCQTPLGMASGHIRDFQITASGQYGQWAPKLARLHYSGSINAWSTKEPFSWIKVDLLAPMIIHGIKTQGARQKFSSLYISQFIIMYSLDGKKWQTYRGNSTGTLMVFFGNVDSSGIKHNIFNPPIIARYIRLHPTHYSIRSTLRMELMGCDLNSCSMPLGMESKAISDAQITASSYFTNMFATWSPSKARLHLQGRSNAWRPQVNNPKEWLQVDFQKTMKVTGVTTQGVKSLLTSMYVKEFLISSSQDGHQWTLFFQNGKVKVFQGNQDSFTPVVNSLDPPLLTRYLRIHPQSWVHQIALRMEVLGCEAQDLYGGGSGGGGSGLVPRGSGGGSGGGGSGDIQLTQSPSFLSASVGDRVTITCRASSSVRYIYWFQQKPGKAPKLLIYATSFRQSGVPSRFSGSGSGTEYTLTISSLQPEDFATYYCHQRNSFPYTFGQGTKLEIKGGGGSGGGGSGGGGSGGGGSEVQLVQSGAEVKKPGASVKVSCKASGYTFTTYAIHWVRQAPGQGLEWMGYINPSSGYTRYNPKFKGRVTMTRDKSTSTAYMELRSLRSDDTAVYYCWTGTRDYWGQGTTVTVSS
notes: also called PPB 7855

Experiments:
[1] = molecular target: T3, Cynomolgus monkey glycophorin A on Cynomolgus monkey red blood cells (Cynomolgus monkey); test: partition to Cyno RBC, human HemA plasma, 1 min;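 also: FVIII fusion spiked at 1 IU/mL into RBC suspension at whole-blood density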
T3 construct: whole, on cells; also called Cyno GPA; Cyno RBC
Experimental: (§1) To evaluate partition to cynomolgus monkey or human red blood cells, whole blood was draw from Cynomolgus monkey or normal human volunteers in to anticoagulant with 4% sodium citrate (Sigma, St Louis, Mo.). The red blood cells were purified by layering the whole blood on to ficoll followed by low speed centrifugation. The supernatant containing plasma, platelets and white blood cells was discarded and the red blood cell pellet was resuspended in 10 pellet volumes of PBS (50 mM Phosphate buffer, pH7.4, 150 mM NaCl). The red blood cells were then pelleted by slow speed centrifugation and the red blood cells re-suspended in 10 volumes of PBS. This washing step was repeated 4 more times and the red blood cells finally resuspended in a volume of plasma from Hemophilia patients with less than 1% of normal levels of FVIII (GeorgeKing Bio-Medical, Overland Park, Kans.) to generate a total volume equal to the initial blood volume such that the RBC density was equal to that of normal whole blood. BDD and RBC targeted FVIII molecules were then spiked into RBC suspension in HemA plasma at 1 IU/mL, and incubated at room temperature for 2-3 hours with gentle rotation. […] An additional control was performed in which BDD or RBC targeted FVIII molecules were added at 11U/ml into the same human hemophilia A plasma and incubated for 5 minutes and 180 mins. These samples were used to determine the input FVIII activity in the presence of plasma which was used to calculate the percentage of the molecule that was bound to RBC. All plasma samples were then assayed together for FVIII activity using the Coatest SP assay (DiaPharma, Columbus, Ohio). The assay was performed following the manufacturer's instructions in a 96-well plate format. […] The plate was incubated at 37° C. for 10 minutes with shaking between each reagent addition.

[2] = molecular target: T3, Cynomolgus monkey glycophorin A on …; test: partition to Cyno RBC, human HemA plasma, 5 min;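 also: FVIII fusion spiked at 1 IU/mL into RBC suspension at whole-blood density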
Experimental: as §1

[3] = molecular target: T1, human glycophorin A on human red blood …; test: partition to human RBC, human HemA plasma, 1 min
Experimental: (§2) The supernatant containing plasma, platelets and white blood cells was discarded and the red blood cell pellet was resuspended in 10 pellet volumes of PBS (50 mM Phosphate buffer, pH7.4, 150 mM NaCl). The red blood cells were then pelleted by slow speed centrifugation and the red blood cells re-suspended in 10 volumes of PBS. This washing step was repeated 4 more times and the red blood cells finally resuspended in a volume of plasma from Hemophilia patients with less than 1% of normal levels of FVIII (GeorgeKing Bio-Medical, Overland Park, Kans.) to generate a total volume equal to the initial blood volume such that the RBC density was equal to that of normal whole blood. BDD and RBC targeted FVIII molecules were then spiked into RBC suspension in HemA plasma at 1 IU/mL, and incubated at room temperature for 2-3 hours with gentle rotation. […] An additional control was performed in which BDD or RBC targeted FVIII molecules were added at 11U/ml into the same human hemophilia A plasma and incubated for 5 minutes and 180 mins. These samples were used to determine the input FVIII activity in the presence of plasma which was used to calculate the percentage of the molecule that was bound to RBC. All plasma samples were then assayed together for FVIII activity using the Coatest SP assay (DiaPharma, Columbus, Ohio). The assay was performed following the manufacturer's instructions in a 96-well plate format. […] The plate was incubated at 37° C. for 10 minutes with shaking between each reagent addition. […] The amount of FVIII activity in the plasma reflects the amount of unbound FVIII. The FVIII activity of the same molecule spiked in to Hemophilia A plasma alone (no RBC) and incubated for 5 minutes was normalized to 100%.

[4] = molecular target: T1, human glycophorin A on human red blood …; test: partition to human RBC, human HemA plasma, 5 min
Experimental: as §2

[5] = molecular target: T3, Cynomolgus monkey glycophorin A on …; test: partition to Cyno RBC, human HemA plasma, 15 min;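 also: FVIII fusion spiked at 1 IU/mL into RBC suspension at whole-blood density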
[6] = molecular target: T3, Cynomolgus monkey glycophorin A on …; test: partition to Cyno RBC, human HemA plasma, 30 min;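 also: FVIII fusion spiked at 1 IU/mL into RBC suspension at whole-blood density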
[7] = molecular target: T3, Cynomolgus monkey glycophorin A on …; test: partition to Cyno RBC, human HemA plasma, 60 min;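 also: FVIII fusion spiked at 1 IU/mL into RBC suspension at whole-blood density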
Experimental: as §1

[8] = molecular target: T1, human glycophorin A on human red blood …; test: partition to human RBC, human HemA plasma, 15 min
[9] = molecular target: T1, human glycophorin A on human red blood …; test: partition to human RBC, human HemA plasma, 30 min
Experimental: as §2

[10] = molecular target: T1, human glycophorin A on human red blood …; test: partition to human RBC, human HemA plasma, 60 min
[11] = molecular target: T3, Cynomolgus monkey glycophorin A on …; test: partition to Cyno RBC, human HemA plasma, 120 min;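 also: FVIII fusion spiked at 1 IU/mL into RBC suspension at whole-blood density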
[12] = molecular target: T1, human glycophorin A on human red blood …; test: partition to human RBC, human HemA plasma, 120 min
Experimental: as §2

[13] = molecular target: T1, human glycophorin A on human red blood …; test: partition to human RBC, human HemA plasma, 120 min; remark: listed apart in the source
Experimental: as §2

[14] = molecular target: T1, human glycophorin A on human red blood …; test: partition to human RBC, vWF deficient plasma, 1 min
[15] = molecular target: T1, human glycophorin A on human red blood …; test: partition to human RBC, vWF deficient plasma, 5 min
[16] = molecular target: T1, human glycophorin A on human red blood …; test: partition to human RBC, vWF deficient plasma, 15 min
[17] = molecular target: T1, human glycophorin A on human red blood …; test: partition to human RBC, vWF deficient plasma, 30 min
[18] = molecular target: T1, human glycophorin A on human red blood …; test: partition to human RBC, vWF deficient plasma, 60 min
[19] = molecular target: T1, human glycophorin A on human red blood …; test: partition to human RBC, vWF deficient plasma, 120 min
[20] = molecular target: T2, glycophorin A peptide GP5; test: Octet, GP5 peptide on the probe, fusion protein in solution, 1:1 fit

Binder | % bound to Cyno RBC [1] | % bound to Cyno RBC [2] | percentage bound to human RBC [3] | percentage bound to human RBC [4] | % bound to Cyno RBC [5] | % bound to Cyno RBC [6] | % bound to Cyno RBC [7] | percentage bound to human RBC [8] | percentage bound to human RBC [9] | percentage bound to human RBC [10] | % bound to Cyno RBC [11] | percentage bound to human RBC [12] | percentage bound to human RBC [13] | percentage bound to human RBC [14] | percentage bound to human RBC [15] | percentage bound to human RBC [16] | percentage bound to human RBC [17] | percentage bound to human RBC [18] | percentage bound to human RBC [19] | other results
B1 | 0% | -19.3% | 0% | 13.8% | -12.5% | -1.9% | -9.8% | 16.3% | 20.5% | 37.1% | -1.9% | 52.8% | 52.8% | 35.1% | 67.9% | 88.3% | 92.4% | 93.3% | 93% | Kd [20]: 0.0133 µM; koff [20]: 0.00465 s⁻¹; kon [20]: 351000 M⁻¹ s⁻¹
B2 | 26.4% | 46% | 31.4% | 53.8% | 54% | 58% | 68% | 71.5% | 78.9% | 84.1% | 71% | 86.7% | 86.7% | 26% | 44.9% | 53.8% | 57.3% | 64.3% | 72.7% | –
